Experimental data taken from IntAct's records for PubMed 19207211.

B1: Oxysterol-binding protein-related protein 3A (Arabidopsis thaliana (Mouse-ear cress)), Q9LZM1 (parent)
chain: MASNDPKNGGGFFASLASSITNFGSAMSKSVNGLMGYEGLEVINPEGSTDDAEEEAGRGRWKQEERDGYWKMMQKYIGSDVTSMVTLPVIIFEPMTMLQKMAELMEYSYLLDMADKTEDPYMRMVYASSWAISVYYAYQRTWKPFNPILGETYEMTNHNGINFIAEQVCHHPPMSAGHAENEHFAYDCTSKLKTKFLGNSIDVYPVGRTRVTLKRDGVVLDLVPPLTKVHNLIFGRTWVDSPGEMVMTNLTTGDKVVLYFQPCGWFGSGRYEVDGYVYNSAEEPKMLMTGKWNESLSYQPCDAEGEPLPGTELKEVWKVAEAPKNDKYQYTHFAHKINSFDTAPKKLLSSDSRLRPDRYALEMGDMSKSGFEKSSLEDRQRAEKKSREEKGQKFAPKWFDETEEVTPTPWGDLEVYQFNGKYSVHRATAENSEDTTDVKLTQFNPWQFQDLSA
partner: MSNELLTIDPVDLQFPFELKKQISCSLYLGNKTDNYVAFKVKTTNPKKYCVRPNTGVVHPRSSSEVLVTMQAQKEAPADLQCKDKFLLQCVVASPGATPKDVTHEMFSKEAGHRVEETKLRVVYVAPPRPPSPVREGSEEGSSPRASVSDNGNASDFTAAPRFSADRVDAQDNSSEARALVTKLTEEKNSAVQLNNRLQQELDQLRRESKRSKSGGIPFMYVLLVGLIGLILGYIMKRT

Variants of: B1
Conditions: with vap12_arath PVA12, Q9SHC8

Variant	effect of a mutation on the interaction
MASNDPKNGGGFFASLASSITNFGSAMSKSVNGLMGYEGLEVINPEGSTDDAEEEAGRGRWKQEERDGYWKMMQKYIGSDVTSMVTLPVIIFEPMTMLQKMAELMEYSYLLDMADKTEDPYMRMVYASSWAISVYYAYQRTWKPFNPILGETYEMTNHNGINFIAEQVCHHPPMSAGHAENEHFAYDCTSKLKTKFLGNSIDVYPVGRTRVTLKRDGVVLDLVPPLTKVHNLIFGRTWVDSPGEMVMTNLTTGDKVVLYFQPCGWFGSGRYEVDGYVYNSAEEPKMLMTGKWNESLSYQPCDAEGEPLPGTELKEVWKVAEAPKNDKYQYTHFAHKINSFDTAPKKLLSSDSRLRPDRYALEMGDMSKSGFEKSSLEDRQRAEKKSREEKGQKFAPKAAGGTGEVTPTPWGDLEVYQFNGKYSVHRATAENSEDTTDVKLTQFNPWQFQDLSA [W398A;F399A;D400G;E401G;E403G]	disrupting interaction
